Assay results as given in the supplement of paper PMC10899765.

System: MCF10A
Assay: 5+ nucleoli phenotype percent effect (relative to siNT 0% and siKIF11 100%); higher = more cells with five or more nucleoli
Details: 20 nM; 72 h
Method: (§1)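 After 72 h, cells were fixed and stained with Hoechst and anti-fibrillarin, and nucleoli per nucleus were counted with CellProfiler. Values are plate-adjusted percent effect for the one-nucleolus and 5+ nucleoli phenotypes, normalised to siNT (0%) and to the positive controls siNOL11 or siKIF11 (100%), as the mean of biological triplicates. Percent viability is the nuclei count relative to siNT.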

Sequence | 5+ nucleoli phenotype percent effect
UCAUUAUAUGUAUGAUCUGGAC [hsa-miR-4528] | -2.39%
UCAUUUAUCUGUUGGGAAGCUA [hsa-miR-4729] | -14.5%
AGGCGGGGCGCCGCGGGACCGC [hsa-miR-663a] | 2.91%
CGUCCCGGGGCUGCGCGAGGCA [hsa-miR-4449] | -7.62%
AAACUACUGAAAAUCAAAGAU [hsa-miR-606] | 18.1%
CAAAGUGCUUACAGUGCAGGUAG [hsa-miR-17-5p] | 27.3%
UCCUCAUCACACUGCACCUUAG [hsa-miR-6072] | -18.4%
CCGCCUGAGCUAGCUGUGG [hsa-miR-6078] | 38.1%
CUCGAGUUGGAAGAGGCG [hsa-miR-4444] | -29.6%
CCAGGGGGAUGGGCGAGCUUGGG [hsa-miR-6798-5p] | 13.9%
CGCAGGGCCCUGGCGCAGGCAU [hsa-miR-6836-5p] | -6.59%
UGAUUGUCUUCCCCCACCCUCA [hsa-miR-6766-3p] | -20.7%
AUUGUCCUUGCUGUUUGGAGAU [hsa-miR-2355-3p] | -3.53%
AAGGUAUUGUUCAGACUUAUGA [hsa-miR-4678] | -18%
UUCGCGGGCGAAGGCAAAGUC [hsa-miR-3124-5p] | 18.7%
AAUGUAGAGAUUGAUCAAAAU [hsa-miR-3668] | 0.392%
UUAGAGGCUGGAAUAGAGAUUCU [hsa-miR-6866-5p] | -0.659%
UGGAGUGUGACAAUGGUGUUUG [hsa-miR-122-5p] | 14.4%
UGGAAGGAGGUUGCCGGACGCU [hsa-miR-4533] | -14.3%
CUCUCACCACUGCCCUCCCACAG [hsa-miR-1229-3p] | 24.9%
UAAGGUGCAUCUAGUGCAGUUAG [hsa-miR-18b-5p] | -32.4%
AGUGGCAAAGUCUUUCCAUAU [hsa-miR-3688-5p] | -15.4%
UCCCCUUCCUCCCUGCCCAG [hsa-miR-6756-3p] | 16.4%
CCUCAAAUGUGGAGCACUAUUCU [hsa-miR-372-5p] | 77.2%
UGAGGGAGGAGACUGCA [hsa-miR-4419a] | -18.8%
CUCUAGCCACAGAUGCAGUGAU [hsa-miR-1287-3p] | -37.2%
AAAGCGCUUCCCUUCAGAGUG [hsa-miR-518e-3p] | -27.4%
UUGGGGUUUGGGGUGCAGACAUUGC [hsa-miR-6855-5p] | -2.12%
AGGGAAAAAAAAAAGGAUUUGUC [hsa-miR-4668-5p] | 61.6%
ACUGGCUAGGGAAAAUGAUUGGAU [hsa-miR-664a-5p] | 8.84%

System: MCF10A
Assay: percent viability (nuclei count relative to siNT); higher = more viable cells
Details: 20 nM; 72 h
Method: as §1

Sequence | percent viability
UUCCAGCCCUUCUAAUGGUAGG [hsa-miR-6512-3p] | 33.8%
CUUCCGGUCUGUGAGCCCCGUC [hsa-miR-4664-3p] | 36.8%
GUGAGUGUGGAUCCUGGAGGAAU [hsa-miR-4658] | 52.7%
ACAGGGCCGCAGAUGGAGACU [hsa-miR-3918] | 8.55%
UGCAAAAGUAAUUGCAGUUUUUG [hsa-miR-548g-5p] | 73.1%
AUGCAGGCCUGUGUACAGCACU [hsa-miR-6811-5p] | 19.1%
GCCCCGGGCAGUGUGAUCAUC [hsa-miR-5587-3p] | 108%
AAAGUGCAUCCUUUUAGAGUGU [hsa-miR-519a-3p] | 160%
UGGGGAGGUGUGGAGUCAGCAU [hsa-miR-6825-5p] | 22.4%
CCUAAUUUGAACACCUUCGGUA [hsa-miR-4735-5p] | 80.8%
GGUAGUGAGUUAUCAGCUAC [hsa-miR-6073] | 71%
AUCGGGCCCUCGGCGCCGG [hsa-miR-3181] | 31.6%
AAGCCCUUACCCCAAAAAGUAU [hsa-miR-129-1-3p] | 54.9%
GCCCUCUGUCACCUUGCAGACG [hsa-miR-2276-5p] | 103%
GAAAGCGCUUCCCUUUGCUGGA [hsa-miR-518a-3p] | 59.1%
ACUGAUUUCUUUUGGUGUUCAG [hsa-miR-29a-5p] | 134%
UUCAGAUCCCAGCGGUGCCUCU [hsa-miR-5100] | 39.2%
AAAAACCACAAUUACUUUUGCACCA [hsa-miR-548aa] | 16.1%
ACAAAAAAAAAAGCCCAACCCUUC [hsa-miR-3613-3p] | 91.6%
CGGGUAGAGAGGGCAGUGGGAGG [hsa-miR-197-5p] | 44.8%

Sequence | percent viability
UUCAGCAGGAACAGCU [hsa-miR-4291] | 45.7%
UCGGCCUGACCACCCACCCCAC [hsa-miR-1234-3p] | 75.7%
UCUGCCAUCCUCCCUCCCCUAC [hsa-miR-4769-3p] | 87%
ACGGAAUAUGUAUACGGAAUAUA [hsa-miR-3669] | 95.9%
CAGUUGGGUCUAGGGGUCAGGA [hsa-miR-4259] | 16%
AGAGGUUGCCCUUGGUGAAUUC [hsa-miR-377-5p] | 22%
UCUGAAUUGUAAGAGUUGUUA [hsa-miR-4680-3p] | 114%
AACACACCUGGUUAACCUCUUU [hsa-miR-329] | 46.9%
AUACAUGUCAGAUUGUAUGCC [hsa-miR-4666a-5p] | 52.7%
UCAUUAUAUGUAUGAUCUGGAC [hsa-miR-4528] | 57.6%
UCAUUUAUCUGUUGGGAAGCUA [hsa-miR-4729] | 53.1%
AGGCGGGGCGCCGCGGGACCGC [hsa-miR-663a] | 62.8%
CGUCCCGGGGCUGCGCGAGGCA [hsa-miR-4449] | 75.7%
AAACUACUGAAAAUCAAAGAU [hsa-miR-606] | 133%
CAAAGUGCUUACAGUGCAGGUAG [hsa-miR-17-5p] | 71.5%
UCCUCAUCACACUGCACCUUAG [hsa-miR-6072] | 32.4%
CCGCCUGAGCUAGCUGUGG [hsa-miR-6078] | 89.3%
CUCGAGUUGGAAGAGGCG [hsa-miR-4444] | 109%
CCAGGGGGAUGGGCGAGCUUGGG [hsa-miR-6798-5p] | 77.9%
CGCAGGGCCCUGGCGCAGGCAU [hsa-miR-6836-5p] | 37.7%

Sequence | percent viability
UGAUUGUCUUCCCCCACCCUCA [hsa-miR-6766-3p] | 43.1%
AUUGUCCUUGCUGUUUGGAGAU [hsa-miR-2355-3p] | 55.4%
AAGGUAUUGUUCAGACUUAUGA [hsa-miR-4678] | 38.9%
UUCGCGGGCGAAGGCAAAGUC [hsa-miR-3124-5p] | 32.5%
AAUGUAGAGAUUGAUCAAAAU [hsa-miR-3668] | 86.3%
UUAGAGGCUGGAAUAGAGAUUCU [hsa-miR-6866-5p] | 14.1%
UGGAGUGUGACAAUGGUGUUUG [hsa-miR-122-5p] | 52.7%
UGGAAGGAGGUUGCCGGACGCU [hsa-miR-4533] | 46.4%
CUCUCACCACUGCCCUCCCACAG [hsa-miR-1229-3p] | 75.8%
UAAGGUGCAUCUAGUGCAGUUAG [hsa-miR-18b-5p] | 41.9%
AGUGGCAAAGUCUUUCCAUAU [hsa-miR-3688-5p] | 31.6%
UCCCCUUCCUCCCUGCCCAG [hsa-miR-6756-3p] | 51.9%
CCUCAAAUGUGGAGCACUAUUCU [hsa-miR-372-5p] | 140%
UGAGGGAGGAGACUGCA [hsa-miR-4419a] | 7.9%
CUCUAGCCACAGAUGCAGUGAU [hsa-miR-1287-3p] | 17%
AAAGCGCUUCCCUUCAGAGUG [hsa-miR-518e-3p] | 48.9%
UUGGGGUUUGGGGUGCAGACAUUGC [hsa-miR-6855-5p] | 9.03%
AGGGAAAAAAAAAAGGAUUUGUC [hsa-miR-4668-5p] | 65%
ACUGGCUAGGGAAAAUGAUUGGAU [hsa-miR-664a-5p] | 47.9%
